In publication PMC8579703:

Biological target: neonatal Fc Receptor, FcRn (UniProt P55899)
Assay: SPR

| Substance | Kd [µM] |
| --- | --- |
| ACE2-IgG4-Fc fusion construct 1 (ACE2 Q18-G732 wildtype fused to IgG4-Fc S228P) (from UniProt Q9BYF1 18-732) | 2.9 |
| ACE2-IgG4-Fc fusion construct 3 (ACE2 Q18-G732 H374N/H378N fused to IgG4-Fc S228P) (from UniProt Q9BYF1 18-732) | 3.9 |
